The text below walks through data of US20180057581A1 (MorphoSys, published 2018).

Numbering of substitutions follows the chain as printed.

Assay [1] deals with T1, Lectin (Lens culinaris) (Lens culinaris, UniProt P02870 31-210; P02870 218-269, limits assumed).
T1 sequence (looked up) 1: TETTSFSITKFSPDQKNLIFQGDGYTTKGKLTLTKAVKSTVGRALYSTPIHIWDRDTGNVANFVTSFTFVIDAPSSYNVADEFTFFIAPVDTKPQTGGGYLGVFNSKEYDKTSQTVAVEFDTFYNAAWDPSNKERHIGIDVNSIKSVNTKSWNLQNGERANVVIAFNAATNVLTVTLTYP
T1 sequence (looked up) 2: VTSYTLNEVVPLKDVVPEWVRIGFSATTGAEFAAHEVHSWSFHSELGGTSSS
Briefly: MSD specificity profiling, coated protein, Camille at 10 nM. As to the method:
(§1) For this specificity profiling test the different proteins and controls were coated on two 384-well MSD plates with a concentration of 1 μg/ml at 4° C. over night. Plates were blocked with BSA and washed three times with PBS with 0.05% (v/v) Tween 20. Antibody samples were diluted to 100 nM and 10 nM in assay buffer (PBS with 0.5% (w/v) BSA, 0.05% (v/v) Tween 20). […] Samples and controls were incubated for three hours at room temperature. The plates were washed three times and 30 μl detection antibody (ECL-labeled anti-human Fab) were added per well and incubated for 1 h. After washing, MSD Read Buffer T with surfactant was added and electrochemiluminescence signals were detected using a Sector Imager 6000 (Meso Scale Discovery, Gaithersburg, Md., USA).

Assay [2] has as its target Trypsin inhibitor (Soybean) (Soybean). The assay is described as above. The protocol: as §1
Another assay addresses T2, RNase B (cow) (cow, UniProt P61823 27-150).
T2 sequence (looked up): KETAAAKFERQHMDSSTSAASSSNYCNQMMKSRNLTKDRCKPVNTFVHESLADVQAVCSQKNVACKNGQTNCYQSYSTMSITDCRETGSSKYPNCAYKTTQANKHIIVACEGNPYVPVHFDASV
Described as above. As to the method:
as §1

The next assay addresses GM-CSF (Homo sapiens (Human), UniProt P04141 18-144). The assay is described as follows: not described (Table 12, criterion Binding).
The target in assay [3] is T3, Recombinant cynomolgus monkey sgM-CSF (cynomolgus (Macaca fascicularis), UniProt P09603 33-255 (human entry), limits assumed).
T3 construct: used also where only 'cynomolgus M-CSF' is printed (ELISA result, SET); also called cynomolgus sgM-CSF; cyno sgM-CSF
T3 chain: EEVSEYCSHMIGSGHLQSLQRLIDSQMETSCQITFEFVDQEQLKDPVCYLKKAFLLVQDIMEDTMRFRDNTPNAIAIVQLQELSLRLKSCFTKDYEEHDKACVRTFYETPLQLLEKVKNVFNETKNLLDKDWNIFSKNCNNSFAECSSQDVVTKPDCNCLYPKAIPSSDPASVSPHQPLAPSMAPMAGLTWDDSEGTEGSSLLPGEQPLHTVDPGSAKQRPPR
Briefly: Receptor binding assay, inhibition of cynomolgus M-CSF binding to M-CSF receptor (competitor CSF1-R-Fc); Table 12 summary. As to the method: Complexes were then transferred to 384 well MSD plates coated with 2 μg/ml of the corresponding receptor. Plates were then washed and incubated with the streptavidin/ECL conjugate for 2 h with shaking at room temperature. 35 μl MSD read buffer T with surfactant was then added per well and subsequently measured using MSD Sector Imager 6000.

Assay [4] addresses T1, Lectin (Lens culinaris). Briefly: MSD specificity profiling, coated protein. As to the method:
as §1

The target of a further assay is T4, Ovalbumin (chicken) (chicken, UniProt P01012 2-386).
T4 sequence (looked up): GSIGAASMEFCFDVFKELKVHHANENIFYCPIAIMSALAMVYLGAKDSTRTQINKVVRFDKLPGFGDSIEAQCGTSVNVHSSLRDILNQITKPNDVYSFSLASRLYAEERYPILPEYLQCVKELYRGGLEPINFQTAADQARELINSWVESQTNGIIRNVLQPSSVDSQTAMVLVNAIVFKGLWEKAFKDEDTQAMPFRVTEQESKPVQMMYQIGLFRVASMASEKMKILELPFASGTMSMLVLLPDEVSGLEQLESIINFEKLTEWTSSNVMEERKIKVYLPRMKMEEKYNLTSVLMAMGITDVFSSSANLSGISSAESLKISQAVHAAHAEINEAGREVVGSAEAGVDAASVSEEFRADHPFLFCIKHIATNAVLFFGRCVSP
The assay is described as follows: MSD specificity profiling, coated protein. The protocol: as §1

A further assay addresses Transferrin (bovine) (bovine, UniProt Q29443 20-704). Briefly: MSD specificity profiling, coated protein. As to the method:
as §1

In assay [5] the target is T5, Recombinant human sgM-CSF (human, UniProt P09603 33-255).
T5 construct: also called human secreted glycosylated M-CSF; Human M-CSF
T5 sequence: T3 chain with M186V, D192E
Briefly: Receptor binding assay, inhibition of human M-CSF binding to M-CSF receptor (competitor CSF1-R-Fc); Table 12 summary.

Sequence of Trypsin inhibitor (Soybean) (Soybean) (P01070 25-205): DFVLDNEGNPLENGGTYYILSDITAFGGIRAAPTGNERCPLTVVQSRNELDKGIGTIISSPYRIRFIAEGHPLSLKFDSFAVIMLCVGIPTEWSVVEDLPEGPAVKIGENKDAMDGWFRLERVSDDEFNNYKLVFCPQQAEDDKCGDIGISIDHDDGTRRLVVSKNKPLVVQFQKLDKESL
Sequence of GM-CSF (P04141 18-144 limits assumed): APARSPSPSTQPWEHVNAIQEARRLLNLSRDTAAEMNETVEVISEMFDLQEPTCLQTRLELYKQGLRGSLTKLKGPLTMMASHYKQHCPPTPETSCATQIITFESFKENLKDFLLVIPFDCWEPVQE
Sequence of Transferrin (bovine) (Q29443 20-704 limits assumed): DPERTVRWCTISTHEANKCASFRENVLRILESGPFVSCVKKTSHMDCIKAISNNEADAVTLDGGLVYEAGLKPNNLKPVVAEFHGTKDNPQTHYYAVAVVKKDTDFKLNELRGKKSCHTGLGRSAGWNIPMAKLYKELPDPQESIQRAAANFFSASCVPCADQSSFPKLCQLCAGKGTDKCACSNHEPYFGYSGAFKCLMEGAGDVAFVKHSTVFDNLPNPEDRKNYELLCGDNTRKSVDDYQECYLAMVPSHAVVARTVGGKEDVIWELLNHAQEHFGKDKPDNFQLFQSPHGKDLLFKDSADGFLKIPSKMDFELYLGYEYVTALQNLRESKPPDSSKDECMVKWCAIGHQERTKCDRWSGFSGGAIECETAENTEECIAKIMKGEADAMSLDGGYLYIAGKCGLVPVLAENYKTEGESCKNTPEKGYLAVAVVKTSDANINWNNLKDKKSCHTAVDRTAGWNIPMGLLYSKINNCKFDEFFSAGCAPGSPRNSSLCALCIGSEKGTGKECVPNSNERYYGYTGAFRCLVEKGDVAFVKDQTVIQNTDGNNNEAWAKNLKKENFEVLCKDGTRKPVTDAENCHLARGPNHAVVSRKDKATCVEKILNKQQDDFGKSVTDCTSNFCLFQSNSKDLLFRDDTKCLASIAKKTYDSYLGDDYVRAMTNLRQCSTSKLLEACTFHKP

B1: Camille (format not stated) (antibody, V domains shown)
VH: QVQLQQSGPGLVKPSQTLSLTCAISGESVSTSSAAWNWIRQSPSRGLEWLGRTYYRSKWKHEYAVSVKSRITINPDTSKNQFSLQLNSVTPEDTAVYYCARDRYYYSAFDYWGQGTLVTVSS
VL: QSALTQPASVSGSPGQSITISCTGTSSDVGGYNSVSWYQQHPGKAPKLLIYAVSNRPSGVSNRFSGSKSGNTASLTISGLQAEDEADYYCASYDERFTRVFGGGTKLTVLG
notes: also called Antibody Camille
What is called IC50 is the concentration that gives 50% inhibition. As to B1, the “signal normalized to reference antibody MOR03207” value (in the assay with Lectin (Lens culinaris) [1]; in [2]; in the assay with RNase B (cow)) was 1 ratio each time. For the same molecule, the binding result in the assay with GM-CSF was “no binding”; with Lectin (Lens culinaris) [4], “no binding (tested: 100 nM and 10 nM antibody)”; with Ovalbumin (chicken), “no binding (tested: 100 nM and 10 nM antibody)”; with Transferrin (bovine) it was “no binding (tested: 100 nM and 10 nM antibody)”. The values for the IC50 in assay [3] and in assay [5] were 6 pM and 4 pM, respectively.
